US7422745 (IXSYS, dated 2008)

What was measured:
[1] = biological target: integrin αvβ3 on cells (M21 human melanoma cells; human umbilical vein endothelial cells) (human) (UniProt P06756); assay: cell-based or functional assay
[2] = biological target: T1, integrin αvβ3 (human vitronectin receptor), purified from human placenta (human, UniProt P06756 31-1048; P05106 27-788); assay: ELISA titration of bacterial cell lysate containing Fab on immobilized αvβ3, detection with goat anti-human kappa-alkaline phosphatase
T1 construct: mature; coated on ELISA plates or immobilized on a BIAcore chip; Biotinylated in capture lift and capture ELISA screens; also called avb3; αvβ3 receptor

[3] = biological target: T1, integrin αvβ3 (human vitronectin …); assay: ELISA on immobilized αvβ3 incubated with 0.1 µg/ml biotinylated fibrinogen (the blocked ligand) and various concentrations of Fab for 3 h at 37 °C; bound fibrinogen detected with NeutrAvidin-alkaline phosphatase

T1 sequence (P06756 31-1048, form in doubt, chain 1 of 2): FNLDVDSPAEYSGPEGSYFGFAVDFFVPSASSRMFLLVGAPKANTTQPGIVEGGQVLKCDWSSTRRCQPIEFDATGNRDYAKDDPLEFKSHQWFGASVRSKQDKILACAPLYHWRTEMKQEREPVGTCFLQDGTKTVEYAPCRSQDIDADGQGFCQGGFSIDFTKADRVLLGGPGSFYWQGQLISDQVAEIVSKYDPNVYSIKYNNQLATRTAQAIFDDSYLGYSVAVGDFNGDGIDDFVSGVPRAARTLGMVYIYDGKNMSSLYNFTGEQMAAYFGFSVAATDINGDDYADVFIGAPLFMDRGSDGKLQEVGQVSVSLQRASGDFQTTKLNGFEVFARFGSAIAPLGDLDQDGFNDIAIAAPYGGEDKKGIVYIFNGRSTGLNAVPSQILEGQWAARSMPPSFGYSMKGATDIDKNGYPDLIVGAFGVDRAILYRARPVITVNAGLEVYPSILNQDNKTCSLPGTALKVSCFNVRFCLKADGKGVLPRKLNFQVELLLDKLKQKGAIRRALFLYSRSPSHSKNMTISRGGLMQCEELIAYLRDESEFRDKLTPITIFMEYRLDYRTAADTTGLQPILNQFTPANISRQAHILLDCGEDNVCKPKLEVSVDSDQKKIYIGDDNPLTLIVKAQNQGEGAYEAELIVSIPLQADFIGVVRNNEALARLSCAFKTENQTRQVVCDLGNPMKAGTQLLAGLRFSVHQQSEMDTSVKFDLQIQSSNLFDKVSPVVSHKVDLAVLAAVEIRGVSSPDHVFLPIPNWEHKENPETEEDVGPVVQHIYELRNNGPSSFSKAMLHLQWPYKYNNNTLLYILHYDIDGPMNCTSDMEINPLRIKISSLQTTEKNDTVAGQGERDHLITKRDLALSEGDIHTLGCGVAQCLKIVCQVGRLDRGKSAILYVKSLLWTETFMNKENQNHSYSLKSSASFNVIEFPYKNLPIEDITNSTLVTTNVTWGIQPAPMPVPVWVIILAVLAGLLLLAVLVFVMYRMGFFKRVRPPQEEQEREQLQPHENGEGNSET
T1 sequence (P05106 27-788, form in doubt, chain 2 of 2): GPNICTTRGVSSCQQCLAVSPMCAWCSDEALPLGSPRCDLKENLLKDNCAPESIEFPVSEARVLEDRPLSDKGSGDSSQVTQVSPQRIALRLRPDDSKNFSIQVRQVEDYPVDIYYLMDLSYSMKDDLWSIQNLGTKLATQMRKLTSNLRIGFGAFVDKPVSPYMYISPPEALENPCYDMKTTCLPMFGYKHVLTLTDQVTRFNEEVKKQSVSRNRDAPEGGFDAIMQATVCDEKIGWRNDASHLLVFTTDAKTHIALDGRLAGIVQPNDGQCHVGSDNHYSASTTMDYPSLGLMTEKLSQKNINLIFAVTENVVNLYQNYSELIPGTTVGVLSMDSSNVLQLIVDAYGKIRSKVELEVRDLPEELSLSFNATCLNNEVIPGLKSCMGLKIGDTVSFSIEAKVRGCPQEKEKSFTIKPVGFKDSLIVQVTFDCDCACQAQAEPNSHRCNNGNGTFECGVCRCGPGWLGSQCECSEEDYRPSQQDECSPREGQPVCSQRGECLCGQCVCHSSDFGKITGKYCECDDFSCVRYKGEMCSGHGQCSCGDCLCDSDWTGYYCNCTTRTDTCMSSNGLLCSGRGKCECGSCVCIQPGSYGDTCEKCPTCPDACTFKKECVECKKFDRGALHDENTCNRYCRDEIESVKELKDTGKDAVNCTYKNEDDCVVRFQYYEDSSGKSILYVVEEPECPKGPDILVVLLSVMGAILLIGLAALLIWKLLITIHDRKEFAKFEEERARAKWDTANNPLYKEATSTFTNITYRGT
Chain of integrin αvβ3 on cells (M21 human melanoma cells; human umbilical vein endothelial cells) (human) (P06756 31-1048, chain 1 of 2): as the sequence (P06756 31-1048, form in doubt, chain 1 of 2) above
Chain of integrin αvβ3 on cells (M21 human melanoma cells; human umbilical vein endothelial cells) (human) (P05106 27-788, chain 2 of 2, further chain): as the sequence (P05106 27-788, form in doubt, chain 2 of 2) above

Row | Molecule | EC50 (read off the curve) [2] | also measured
1 | monoclonal antibody LM609 (murine IgG) |  | decrease in vitronectin-induced migration of human umbilical vein endothelial cells (transwell), antibody at 5 µg/ml [1]: 60%
2 | LM609 grafted antibody Fab (parent molecule) (Fab, V domains shown, Fab expressed from M13 phage vector in E. coli, purified on protein A; also called LM609 grafted Fab; wild type) VH: QVQLVESGGGVVQPGRSLRLSCAASGFTFSSYDMSWVRQAPGKGLEWVAKVSSGGGSTYYLDTVQGRFTISRDNSKNTLYLQMNSLRAEDTAVYYCARHNYGSFAYWGQGTTVTVSS VL: EIVLTQSPATLSLSPGERATLSCQASQSISNHLHWYQQRPGQAPRLLIRYRSQSISGIPARFSGSGSGTDFTLTISSLEPEDFAVYYCQQSGSWPHTFGGGTKVEIK | ~0.4 µg/mL | 
3 | LM609 grafted antibody combinatorial clone C59 (Fab, V domains shown, Fab) VH: QVQLVESGGGVVQPGRSLRLSCAASGFTFSSYDMSWVRQAPGKGLEWVAKVSSGGGSTYYPDTVQGRFTISRDNSKNTLYLQMNSLRAEDTAVYYCARHNYGSFADWGQGTTVTVSS VL: EIVLTQSPATLSLSPGERATLSCQASQSISNFLHWYQQRPGQAPRLLIRYRSQSISGIPARFSGSGSGTDFTLTISSLEPEDFAVYYCQQSGSWPHTFGGGTKVEIK |  | IC50 (read off the curve) [3]: ~0.1 µg/mL
4 | LM609 grafted antibody variant S102 (Fab, V domains shown, Fab; also called clone S102) VH: QVQLVESGGGVVQPGRSLRLSCAASGFTFSSYDMSWVRQAPGKGLEWVAKVSSGGGSTYYLDTVQGRFTISRDNSKNTLYLQMNSLRAEDTAVYYCARHNYGSFASWGQGTTVTVSS VL: EIVLTQSPATLSLSPGERATLSCQASQSISNHLHWYQQRPGQAPRLLIRYRSQSISGIPARFSGSGSGTDFTLTISSLEPEDFAVYYCQQSGSWPHTFGGGTKVEIK | ~0.1 µg/mL | 
